Reference: patent US20250136720A1 (Boehringer Ingelheim, published 2025)
Numbering of substitutions follows the chain as printed. Names and notes keep the numbering of the source. Values belong to the binder of their own block, whether it stands above or below them.

How the values were obtained:
[1] = target: T1, Human CD137 on Jurkat cells (human, UniProt Q07011 24-255); assay: cell-based or functional assay
[2] = target: T1, Human CD137 on Jurkat cells; assay: cell-based or functional assay; parameters: IC90; Jurkat-CD137 NFkB-luciferase, HT1080-FAP co-culture / EC90; Jurkat-CD137 NFkB-luciferase, HT1080-FAP co-culture: unit not given beside the values
[3] = target: T1, Human CD137 on Jurkat cells; assay: flow cytometry, Jurkat cells;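 also: binding of antibody-containing supernatants to NF-kB-Luc2/4-1BB Jurkat cells, detected by flow cytometry with a PE-labelled anti-human IgG-Fc secondary antibody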
Method: Briefly, HTP supernatants containing recombinant IgG1 (KO) antibodies, were assayed by flow cytometry for binding to the NF-kB-Luc2/4-1BB Jurkat cell line. […] The cells were washed x3 with staining buffer. A Goat F(ab′)2 anti-human IgG-Fc PE secondary antibody was added to the cells and the plate was incubated for 30 min at 4° C. The cells were wash ×3 with staining buffer.

- Average EC50; Jurkat-CD137 NFkB-luciferase, HT1080-FAP co-culture [1]: 0.175 nM
- Average EC90; Jurkat-CD137 NFkB-luciferase, HT1080-FAP co-culture [1]: 1.25 nM
- Average IC50; Jurkat-CD137 NFkB-luciferase, HT1080-FAP co-culture [1]: 559 nM
- Average IC90; Jurkat-CD137 NFkB-luciferase, HT1080-FAP co-culture [1]: 98.6 nM
- Ratio IC50/EC50; Jurkat-CD137 NFkB-luciferase, HT1080-FAP co-culture [1]: 3190
- Ratio IC90/EC90; Jurkat-CD137 NFkB-luciferase, HT1080-FAP co-culture [1]: 79
- EC90; Jurkat-CD137 NFkB-luciferase, HT1080-FAP co-culture [2]: 1.38
- IC90; Jurkat-CD137 NFkB-luciferase, HT1080-FAP co-culture [2]: 77.8
- Total AUC; Jurkat-CD137 NFkB-luciferase, HT1080-FAP co-culture [2]: 3e+06
B1: CD137 #4 (B21.V25) + FAP #5 (C3 VK1/VH4) (bispecific antibody, human IgG1, kappa, L234A L235A)
heavy: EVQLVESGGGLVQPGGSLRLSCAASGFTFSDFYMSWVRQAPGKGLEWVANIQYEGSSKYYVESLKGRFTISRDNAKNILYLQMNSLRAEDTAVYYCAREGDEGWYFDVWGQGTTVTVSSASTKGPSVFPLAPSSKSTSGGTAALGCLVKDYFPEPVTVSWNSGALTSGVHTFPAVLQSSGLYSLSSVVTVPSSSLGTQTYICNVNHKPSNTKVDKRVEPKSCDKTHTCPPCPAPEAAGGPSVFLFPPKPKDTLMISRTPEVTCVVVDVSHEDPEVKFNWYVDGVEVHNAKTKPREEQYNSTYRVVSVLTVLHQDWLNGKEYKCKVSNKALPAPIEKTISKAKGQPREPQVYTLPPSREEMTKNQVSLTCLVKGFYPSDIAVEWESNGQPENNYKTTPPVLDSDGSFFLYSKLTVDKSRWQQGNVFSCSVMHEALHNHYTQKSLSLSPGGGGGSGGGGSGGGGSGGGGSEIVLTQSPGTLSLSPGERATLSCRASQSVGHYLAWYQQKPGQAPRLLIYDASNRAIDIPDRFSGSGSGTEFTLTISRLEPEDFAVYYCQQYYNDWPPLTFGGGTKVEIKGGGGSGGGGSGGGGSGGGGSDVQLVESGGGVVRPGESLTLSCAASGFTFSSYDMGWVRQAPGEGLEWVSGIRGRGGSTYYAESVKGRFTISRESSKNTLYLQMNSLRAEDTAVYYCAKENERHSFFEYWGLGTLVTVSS
light: DIQMTQSPSSLSASVGDRVTITCRASQSISTAVAWYQQKPGKAPKLLIYAASYLYSGVPSRFSGSGSGTDFTLTISSLQPEDFAVYYCQQHYSNPWTFGQGTKLEIKRTVAAPSVFIFPPSDEQLKSGTASVVCLLNNFYPREAKVQWKVDNALQSGNSQESVTEQDSKDSTYSLSSTLTLSKADYEKHKVYACEVTHQGLSSPVTKSFNRGEC

- Average EC50; Jurkat-CD137 NFkB-luciferase, HT1080-FAP co-culture [1]: 0.165 nM
- Average EC90; Jurkat-CD137 NFkB-luciferase, HT1080-FAP co-culture [1]: 1.47 nM
- Average IC50; Jurkat-CD137 NFkB-luciferase, HT1080-FAP co-culture [1]: 847 nM
- Average IC90; Jurkat-CD137 NFkB-luciferase, HT1080-FAP co-culture [1]: 87.8 nM
- Ratio IC50/EC50; Jurkat-CD137 NFkB-luciferase, HT1080-FAP co-culture [1]: 5130
- Ratio IC90/EC90; Jurkat-CD137 NFkB-luciferase, HT1080-FAP co-culture [1]: 59.7
- EC90; Jurkat-CD137 NFkB-luciferase, HT1080-FAP co-culture [2]: 3.14
- IC90; Jurkat-CD137 NFkB-luciferase, HT1080-FAP co-culture [2]: 127
- Total AUC; Jurkat-CD137 NFkB-luciferase, HT1080-FAP co-culture [2]: 3.3e+06
B2: CD137 #2 (B21.V16) + FAP #2 (A11 VK3/VH3) (bispecific antibody, human IgG1, kappa, L234A L235A)
heavy: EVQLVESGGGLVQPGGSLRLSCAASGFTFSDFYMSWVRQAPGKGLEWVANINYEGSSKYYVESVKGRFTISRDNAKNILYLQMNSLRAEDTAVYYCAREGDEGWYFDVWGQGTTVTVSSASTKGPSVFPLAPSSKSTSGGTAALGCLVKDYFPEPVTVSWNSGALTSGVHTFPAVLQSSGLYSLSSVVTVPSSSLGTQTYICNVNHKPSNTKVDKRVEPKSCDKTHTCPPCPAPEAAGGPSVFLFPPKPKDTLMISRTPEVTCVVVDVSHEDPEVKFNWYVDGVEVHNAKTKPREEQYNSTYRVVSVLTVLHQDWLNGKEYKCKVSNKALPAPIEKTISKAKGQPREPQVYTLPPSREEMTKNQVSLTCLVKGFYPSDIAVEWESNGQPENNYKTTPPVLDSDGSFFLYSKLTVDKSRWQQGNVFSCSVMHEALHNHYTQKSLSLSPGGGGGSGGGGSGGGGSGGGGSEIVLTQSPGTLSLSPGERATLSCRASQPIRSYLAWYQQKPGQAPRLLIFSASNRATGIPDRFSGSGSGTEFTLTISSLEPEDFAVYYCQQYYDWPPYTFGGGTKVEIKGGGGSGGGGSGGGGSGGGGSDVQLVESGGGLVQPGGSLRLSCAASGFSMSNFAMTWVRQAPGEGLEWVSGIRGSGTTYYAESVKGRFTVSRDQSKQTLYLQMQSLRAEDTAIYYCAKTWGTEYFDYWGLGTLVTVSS
light: B1 light with R24K, S28D, T31S, A50S, Y53S, L54R, S56T

- Average EC50; Jurkat-CD137 NFkB-luciferase, HT1080-FAP co-culture [1]: 0.054 nM
- Average EC90; Jurkat-CD137 NFkB-luciferase, HT1080-FAP co-culture [1]: 0.315 nM
- Average IC50; Jurkat-CD137 NFkB-luciferase, HT1080-FAP co-culture [1]: 191 nM
- Average IC90; Jurkat-CD137 NFkB-luciferase, HT1080-FAP co-culture [1]: 13.8 nM
- Ratio IC50/EC50; Jurkat-CD137 NFkB-luciferase, HT1080-FAP co-culture [1]: 3520
- Ratio IC90/EC90; Jurkat-CD137 NFkB-luciferase, HT1080-FAP co-culture [1]: 43.8
- EC90; Jurkat-CD137 NFkB-luciferase, HT1080-FAP co-culture [2]: 0.47
- IC90; Jurkat-CD137 NFkB-luciferase, HT1080-FAP co-culture [2]: 13.8
- Total AUC; Jurkat-CD137 NFkB-luciferase, HT1080-FAP co-culture [2]: 3.6e+06
B3: CD137 #6 (B21.V37) + FAP #5 (C3 VK1/VH4) (bispecific antibody, human IgG1, kappa, L234A L235A)
heavy: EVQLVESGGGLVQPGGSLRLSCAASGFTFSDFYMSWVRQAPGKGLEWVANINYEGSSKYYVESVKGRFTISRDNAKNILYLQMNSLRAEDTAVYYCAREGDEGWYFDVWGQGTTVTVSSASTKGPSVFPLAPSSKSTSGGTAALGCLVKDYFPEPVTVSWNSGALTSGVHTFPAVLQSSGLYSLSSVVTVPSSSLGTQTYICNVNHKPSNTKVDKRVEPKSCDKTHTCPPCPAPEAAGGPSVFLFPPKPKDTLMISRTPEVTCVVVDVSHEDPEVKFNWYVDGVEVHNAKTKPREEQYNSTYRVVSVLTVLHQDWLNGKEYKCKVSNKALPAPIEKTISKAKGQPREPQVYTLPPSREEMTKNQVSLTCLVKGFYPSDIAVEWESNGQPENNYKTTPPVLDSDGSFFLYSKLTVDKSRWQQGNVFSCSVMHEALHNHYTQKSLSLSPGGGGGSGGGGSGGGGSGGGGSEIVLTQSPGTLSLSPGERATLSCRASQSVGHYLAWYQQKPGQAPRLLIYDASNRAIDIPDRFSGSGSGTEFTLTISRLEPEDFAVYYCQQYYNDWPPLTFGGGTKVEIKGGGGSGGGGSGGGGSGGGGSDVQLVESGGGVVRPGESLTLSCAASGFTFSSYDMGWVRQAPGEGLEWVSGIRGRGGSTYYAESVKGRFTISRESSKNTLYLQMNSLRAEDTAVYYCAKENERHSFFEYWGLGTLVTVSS
light: B1 light with V33L, L54R

- Average EC50; Jurkat-CD137 NFkB-luciferase, HT1080-FAP co-culture [1]: 0.233 nM
- Average EC90; Jurkat-CD137 NFkB-luciferase, HT1080-FAP co-culture [1]: 2.23 nM
- Average IC50; Jurkat-CD137 NFkB-luciferase, HT1080-FAP co-culture [1]: 538 nM
- Average IC90; Jurkat-CD137 NFkB-luciferase, HT1080-FAP co-culture [1]: 110 nM
- Ratio IC50/EC50; Jurkat-CD137 NFkB-luciferase, HT1080-FAP co-culture [1]: 2300
- Ratio IC90/EC90; Jurkat-CD137 NFkB-luciferase, HT1080-FAP co-culture [1]: 49.4
- EC90; Jurkat-CD137 NFkB-luciferase, HT1080-FAP co-culture [2]: 0.87
- IC90; Jurkat-CD137 NFkB-luciferase, HT1080-FAP co-culture [2]: 74.3
- Total AUC; Jurkat-CD137 NFkB-luciferase, HT1080-FAP co-culture [2]: 3.6e+06
B4: CD137 #2 (B21.V16) + FAP #5 (C3 VK1/VH4) (bispecific antibody, human IgG1, kappa, L234A L235A)
heavy: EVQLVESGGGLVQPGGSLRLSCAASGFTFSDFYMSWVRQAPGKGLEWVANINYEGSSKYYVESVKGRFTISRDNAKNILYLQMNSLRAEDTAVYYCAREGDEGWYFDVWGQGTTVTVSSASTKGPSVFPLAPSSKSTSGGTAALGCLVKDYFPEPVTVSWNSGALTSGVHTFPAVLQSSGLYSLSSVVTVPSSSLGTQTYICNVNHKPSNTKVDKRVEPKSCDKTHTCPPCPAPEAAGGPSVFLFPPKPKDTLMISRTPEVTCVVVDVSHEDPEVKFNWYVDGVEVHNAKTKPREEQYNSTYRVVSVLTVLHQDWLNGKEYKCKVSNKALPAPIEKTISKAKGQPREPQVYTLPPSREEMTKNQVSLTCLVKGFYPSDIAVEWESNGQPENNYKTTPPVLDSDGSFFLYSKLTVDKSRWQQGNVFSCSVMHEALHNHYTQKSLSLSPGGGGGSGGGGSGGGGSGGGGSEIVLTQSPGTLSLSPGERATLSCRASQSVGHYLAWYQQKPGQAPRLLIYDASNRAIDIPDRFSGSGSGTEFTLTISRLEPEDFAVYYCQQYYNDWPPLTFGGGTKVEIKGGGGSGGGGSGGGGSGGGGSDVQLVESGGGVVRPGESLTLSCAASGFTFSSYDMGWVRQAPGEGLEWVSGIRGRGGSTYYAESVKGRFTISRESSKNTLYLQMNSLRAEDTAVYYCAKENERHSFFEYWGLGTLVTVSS
light: B1 light with R24K, S28D, T31S, A50S, Y53S, L54R, S56T

- Average EC50; Jurkat-CD137 NFkB-luciferase, HT1080-FAP co-culture [1]: 0.166 nM
- Average EC90; Jurkat-CD137 NFkB-luciferase, HT1080-FAP co-culture [1]: 1.43 nM
- Average IC50; Jurkat-CD137 NFkB-luciferase, HT1080-FAP co-culture [1]: 624 nM
- Average IC90; Jurkat-CD137 NFkB-luciferase, HT1080-FAP co-culture [1]: 84.6 nM
- Ratio IC50/EC50; Jurkat-CD137 NFkB-luciferase, HT1080-FAP co-culture [1]: 3750
- Ratio IC90/EC90; Jurkat-CD137 NFkB-luciferase, HT1080-FAP co-culture [1]: 59.4
- EC90; Jurkat-CD137 NFkB-luciferase, HT1080-FAP co-culture [2]: 0.98
- IC90; Jurkat-CD137 NFkB-luciferase, HT1080-FAP co-culture [2]: 54
- Total AUC; Jurkat-CD137 NFkB-luciferase, HT1080-FAP co-culture [2]: 3.18e+07
B5: CD137 #8 (A49.V43) + FAP #5 (C3 VK1/VH4) (bispecific antibody, human IgG1, kappa, L234A L235A)
heavy: not shown
light: EIVMTQSPLSLPVTPGEPASISCRSSQSLLYSNGYNHLDWYLQKPGQSPQLLIYLGSNRASGVPDRFSGSGSGTDFTLKISRVEAEDVGVYYCMQALQTPPTFGQGTKLEIKRTVAAPSVFIFPPSDEQLKSGTASVVCLLNNFYPREAKVQWKVDNALQSGNSQESVTEQDSKDSTYSLSSTLTLSKADYEKHKVYACEVTHQGLSSPVTKSFNRGEC

- Average EC50; Jurkat-CD137 NFkB-luciferase, HT1080-FAP co-culture [1]: 0.327 nM
- Average EC90; Jurkat-CD137 NFkB-luciferase, HT1080-FAP co-culture [1]: 2.59 nM
- Average IC50; Jurkat-CD137 NFkB-luciferase, HT1080-FAP co-culture [1]: 958 nM
- Average IC90; Jurkat-CD137 NFkB-luciferase, HT1080-FAP co-culture [1]: 210 nM
- Ratio IC50/EC50; Jurkat-CD137 NFkB-luciferase, HT1080-FAP co-culture [1]: 2930
- Ratio IC90/EC90; Jurkat-CD137 NFkB-luciferase, HT1080-FAP co-culture [1]: 81.2
- EC90; Jurkat-CD137 NFkB-luciferase, HT1080-FAP co-culture [2]: 5.04
- IC90; Jurkat-CD137 NFkB-luciferase, HT1080-FAP co-culture [2]: 467
- Total AUC; Jurkat-CD137 NFkB-luciferase, HT1080-FAP co-culture [2]: 2.5e+07
B6: CD137 #8 (A49.V43) + FAP #2 (A11 VK3/VH3) (bispecific antibody, human IgG1, kappa, L234A L235A)
heavy: not shown
light: B5 light

- Average EC50; Jurkat-CD137 NFkB-luciferase, HT1080-FAP co-culture [1]: 0.17 nM
- Average EC90; Jurkat-CD137 NFkB-luciferase, HT1080-FAP co-culture [1]: 1.01 nM
- Average IC50; Jurkat-CD137 NFkB-luciferase, HT1080-FAP co-culture [1]: 362 nM
- Average IC90; Jurkat-CD137 NFkB-luciferase, HT1080-FAP co-culture [1]: 58.3 nM
- Ratio IC50/EC50; Jurkat-CD137 NFkB-luciferase, HT1080-FAP co-culture [1]: 2130
- Ratio IC90/EC90; Jurkat-CD137 NFkB-luciferase, HT1080-FAP co-culture [1]: 57.6
- EC90; Jurkat-CD137 NFkB-luciferase, HT1080-FAP co-culture [2]: 0.96
- IC90; Jurkat-CD137 NFkB-luciferase, HT1080-FAP co-culture [2]: 60.8
- Total AUC; Jurkat-CD137 NFkB-luciferase, HT1080-FAP co-culture [2]: 3.15e+07
B7: CD137 #8 (A49.V43) + FAP #3 (A11 VK7/VH1) (bispecific antibody, human IgG1, kappa, L234A L235A)
heavy: not shown
light: B5 light

- binding result [3]: binds
B8: CD137 #A30 (antibody, human IgG1, V domains shown)
VH: QVQLQQPGTEFVKPGASVKLSCKASDYTFTSHWMHWVKQRPGQGLEWIGEIDPSDSYTNYIQKFKGKATLTVDKSSSTAYMQLSSLTSEDSAVYYCARGDYYGTRYFDVWGAGTTVIVSS
VL: DIVMTQSPSSLSVSAGEKVTMSCKSGQNLFNSGNQKNYLAWYQQKPGQPPRLLIYGASTRESGVPDRFTGSGSGTDFTLTISSVQAEDLAVYYCQNDQSYPPTFGAGTKLELK
notes: human IgG1 KO (L234A/L235A)/kappa chimeric IgG
